In publication PMC6327041 (Nature Communications, 2019):

Biological target: T1, KDM5A1-797 (Homo sapiens, UniProt P29375)
T1 construct: KDM5A1-797 was cloned into a pFASTBAC HTA vector; His (N, cleaved yes); made in house; host or cells: Sf21 insect cells (baculovirus)
T1 sequence (P29375 1-797): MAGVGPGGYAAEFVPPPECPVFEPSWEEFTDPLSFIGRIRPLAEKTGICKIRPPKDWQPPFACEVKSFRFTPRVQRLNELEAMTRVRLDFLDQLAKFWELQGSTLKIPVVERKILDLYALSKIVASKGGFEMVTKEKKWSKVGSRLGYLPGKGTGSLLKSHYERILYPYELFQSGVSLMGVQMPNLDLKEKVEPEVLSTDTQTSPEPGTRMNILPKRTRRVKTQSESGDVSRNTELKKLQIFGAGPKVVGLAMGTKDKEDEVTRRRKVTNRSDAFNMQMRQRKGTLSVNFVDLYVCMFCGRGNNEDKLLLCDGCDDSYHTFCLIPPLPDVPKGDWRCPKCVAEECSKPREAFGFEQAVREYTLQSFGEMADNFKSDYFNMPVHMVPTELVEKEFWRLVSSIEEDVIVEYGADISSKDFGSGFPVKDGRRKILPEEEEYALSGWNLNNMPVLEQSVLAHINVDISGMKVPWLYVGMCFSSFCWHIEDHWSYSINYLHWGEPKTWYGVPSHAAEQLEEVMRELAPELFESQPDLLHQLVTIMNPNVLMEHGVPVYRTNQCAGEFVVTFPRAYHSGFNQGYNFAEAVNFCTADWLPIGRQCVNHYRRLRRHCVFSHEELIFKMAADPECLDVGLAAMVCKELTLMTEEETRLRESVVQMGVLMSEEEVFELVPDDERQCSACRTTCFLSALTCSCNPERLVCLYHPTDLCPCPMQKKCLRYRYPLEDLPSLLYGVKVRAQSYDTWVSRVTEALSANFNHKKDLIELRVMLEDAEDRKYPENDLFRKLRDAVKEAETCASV
Assay: Lysine crosslinking MS
Conditions: H3 effector peptide 40 µM, BS^3-H12/D12, 1 h, 4 °C
Experimental: Hundred micrograms of KDM5A1-797 was crosslinked with 1 mM BS^3-H12 for 1 h at 4 °C. […] After quenching with 50 mM Tris-base, the light and heavy crosslinked reaction mixtures were combined and precipitated with ice cold acetone. Crosslinked proteins were pelleted by spinning at 21,000 × g, the supernatant was removed, and the pellet was washed once with cold acetone. The precipitate was brought up in 8 M Urea, 10 mM TCEP, heated at 56 °C for 20 min, and then alkylated with 15 mM iodoacetamide (45 min at room temperature). The sample was diluted to 2 M Urea and digested […] with 0.8 µg trypsin for 4 h at 37 °C. A second aliquot of trypsin was then added and digestion was allowed to proceed overnight. […]
LC-MS analysis was performed with a Q-Exactive Plus mass spectrometer (Thermo Scientific) coupled with a nanoelectrospray ion source (Easy-Spray, Thermo) and NanoAcquity UPLC system (Waters). […] Precursor MS scans were measured in the Orbitrap scanning from 350 to 1500 m/z (mass resolution: 70,000). The ten most intense triply charged or higher precursors were isolated in the quadrupole (isolation window: 4 m/z), dissociated by HCD (normalized collision energy: 23), and the product ion spectra were measured in the Orbitrap (mass resolution: 17,500). […]
For quantitative analysis, precursor ion filtering in Skyline 4.1 was used to extract light:heavy crosslinked precursor ion signals. […]

With “H3: unmodified N-terminal H3 tail 10mer peptide (H3 Ala1-Ser10), PHD1 effector ligand” the “changes in lysine crosslinks” value was “minor changes in crosslink occupancy and distribution”.
